{"source": "paper PMC5392723", "assay_in_all_cases": "EMSA", "key": {"Glo qRRM1,2 R52A,K149A": {"biological_target": "T1, Glo qRRM1,2 R52A,K149A (Drosophila, UniProt Q9VGH5 49-225, R52A;K149A)", "T1 sequence": "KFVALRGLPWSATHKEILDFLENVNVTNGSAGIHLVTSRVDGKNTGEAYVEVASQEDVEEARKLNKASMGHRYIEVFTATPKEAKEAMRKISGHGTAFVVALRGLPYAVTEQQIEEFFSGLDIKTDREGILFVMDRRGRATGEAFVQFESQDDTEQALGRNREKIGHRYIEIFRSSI"}, "Glo qRRM3": {"biological_target": "T2, Glo qRRM3 (Drosophila, UniProt Q9VGH5 476-565)", "T2 sequence": "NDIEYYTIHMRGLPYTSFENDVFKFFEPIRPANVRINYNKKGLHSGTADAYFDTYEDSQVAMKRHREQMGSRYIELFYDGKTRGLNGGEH"}, "Glo qRRM1": {"biological_target": "T3, Glo qRRM1 (Drosophila, UniProt Q9VGH5 49-129)", "T3 sequence": "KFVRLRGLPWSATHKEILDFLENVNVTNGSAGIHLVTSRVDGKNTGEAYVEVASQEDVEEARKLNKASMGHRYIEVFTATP"}, "Glo qRRM2": {"biological_target": "T4, Glo qRRM2 (Drosophila, UniProt Q9VGH5 146-225)", "T4 sequence": "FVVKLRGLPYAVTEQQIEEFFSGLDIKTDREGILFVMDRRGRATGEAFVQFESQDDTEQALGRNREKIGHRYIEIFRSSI"}, "Glo qRRM1,2 W58A": {"biological_target": "T5, Glo qRRM1,2 W58A (Drosophila, UniProt Q9VGH5 49-225, W58A)", "T5 sequence": "T1 sequence with A4R, W10A, A101K"}}, "note": "Changes are numbered by the printed parent chain.", "data": [{"binder": "AGGGA (ssRNA)", "note": "[G-tract RNA 5'-AGGGA]", "values": [{"measurement": "binding result", "setting": "Glo qRRM1,2 R52A,K149A", "result": "binds"}, {"measurement": "Kd", "setting": "Glo qRRM3", "result": 170, "unit": "nM"}, {"measurement": "Kd", "setting": "Glo qRRM1", "result": 180, "unit": "nM"}, {"measurement": "Kd", "setting": "Glo qRRM2", "result": 620, "unit": "nM"}, {"measurement": "binding result", "setting": "Glo qRRM1,2 W58A", "result": "binds"}]}]}
